Substrate: N[C@@H](Cc1c[nH]c2ccccc12)C(=O)O
Experiment: radiolabelled uptake in intact E. coli MQ614
Type: cell-based, Halalkalibacterium halodurans
Details: 10-second uptake, 10 mM Tris/Mes pH 8.5, 150 mM NaCl, labelled compound

B1: MhsT (Halalkalibacterium halodurans C-125) (protein)
chain: SLKQQTGREQWASRLGFILAAMGSAVGLGNIWRFSYVTGENGGAAFLLVYLGFIALIGIPIVLAEFTIGRRAQSDAVGSFEKLAPGKPWKVAGLMGVAAGFLILSFYGVIAGWILFYLFNYITGQLWSAPAEGFGGFFEGFIANPTLPLFWQALFMIATIWIVAIGVKKGIERSNKILMPLLGVLLIALAIYSLTLGGAKEGLAFLFSPDWSALKDPGVYLAAISQAFFTLSLGMGALITYGSYVSKDSRLPGAAVSVAGLDTAFAIIAGIMIFPAVFALGLSPSGGPGLVFVVLPDIFDSIRLGPIVGIAFFILLGAAALSSAVSLLEVPVAYFMRKFDWSRKQAAITLGVIITLLGIPSSLSFGVLGEVTIIPGLNIFDSVDFIASSVFLPLGGMIIALFIGWGWKTSDALAESDLTDSVWGKLWILSLRFIAPIAILIVFLSAFQIFFN
Km: 1.07 ± 0.19 µM

Reference: paper doi:10.1101/2020.04.03.022970v1
